According to patent EP4569003A2 (dated 2026):

Experiments:
[1] = molecular target: T1, CLDN6 cytoplasmic domain peptide SHYMARYSTSAPAIS (SEQ ID NO: 99) (human); assay: peptide epitope mapping (FIG 2)
T1 peptide: SHYMARYSTSAPAIS

[2] = molecular target: T2, CLDN3-GFP, expressed in HEK293 T cells (UniProt O15551 1-220); assay: immunohistochemistry on FFPE engineered HEK293 cells
T2 construct: whole, on cells; also called Claudin3; HEK293 CLDN3; not shown: GFP fused to CLDN3
T2 sequence (looked up): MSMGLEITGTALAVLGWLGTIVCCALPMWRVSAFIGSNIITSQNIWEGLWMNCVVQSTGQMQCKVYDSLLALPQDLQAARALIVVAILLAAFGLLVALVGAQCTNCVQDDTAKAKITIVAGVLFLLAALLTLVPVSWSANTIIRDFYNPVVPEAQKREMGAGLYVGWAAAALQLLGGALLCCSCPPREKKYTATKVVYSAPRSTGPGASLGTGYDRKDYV

[3] = molecular target: T3, CLDN9-GFP, expressed in HEK293 T cells (UniProt O95484 1-217); assay: as above
T3 construct: whole, on cells; also called Claudin9; HEK293 9; not shown: GFP fused to CLDN9
T3 sequence (looked up): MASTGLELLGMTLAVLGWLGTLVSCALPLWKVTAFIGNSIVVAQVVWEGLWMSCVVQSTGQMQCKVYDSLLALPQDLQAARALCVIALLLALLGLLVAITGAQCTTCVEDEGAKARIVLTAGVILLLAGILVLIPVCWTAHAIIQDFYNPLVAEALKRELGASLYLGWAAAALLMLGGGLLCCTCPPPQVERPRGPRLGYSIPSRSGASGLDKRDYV

[4] = molecular target: T4, CLDN4-GFP, expressed in HEK293 T cells (UniProt O14493 1-209); assay: as above
T4 construct: whole, on cells; also called Claudin4; HEK293 4; not shown: GFP fused to CLDN4
T4 sequence (looked up): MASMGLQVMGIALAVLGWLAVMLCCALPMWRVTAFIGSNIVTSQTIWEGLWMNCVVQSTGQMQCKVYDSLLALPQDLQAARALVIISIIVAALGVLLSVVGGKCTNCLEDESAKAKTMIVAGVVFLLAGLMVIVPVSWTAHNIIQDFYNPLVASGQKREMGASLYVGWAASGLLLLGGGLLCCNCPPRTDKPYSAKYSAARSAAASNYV

B1: Claudin-6 (CLDN6) antibody 3D07 (antibody, V domains shown)
VH: EVQLQQFGAELVKPGASVKISCRTSGYTFTDYNIDWVRQSHGKSLEWIGDINPNSENTDYNQKFKGKATLTVDKSSSTAYLELRSLTSEDTAVYYCARSPYGNYVGYLMDYWGQGTSVTVSS
VL: DVVLTQTPLSLPVNIGDQASISCRSTKSLLNSDGFTYLDWYLQKPGQSPQVLIYLISNRFSGVPDRFSGNGSGTDFTLKISRVEAEDLGVYYCFQSNYIPLTFGAGTKLELK
notes: Mouse hybridoma clone; Detection was with goat anti-mouse IgG; also called clone 3D07
binding result [1]: binds
binding result [2]: no binding
binding result [3]: no binding
binding result [4]: no binding

B2: Claudin-6 (CLDN6) antibody 3H11 (antibody, V domains shown)
VH: EIQLQQSGAELVRPGALVRLSCKPSGFNIKDYYIHWVKERPEQGLEWIGWIDPDNGDTLYDSKFQGKASLTADTSSNTAYLQLTSLTSEDTAVYYCATYRYSFAYWGQGTLVTVSA
VL: DIQMNQSPSSLSASLGDTITITCHASQNINVWLNWYQQKPGNIPKLLIFKASNLYTGVPSRFSGGGSGTGFTLTISSLQPEDIATYYCQQGQTYPLTFGGGTKLEIK
notes: Mouse hybridoma clone; Detection was with goat anti-mouse IgG; also called clone 3H11
binding result [2]: no binding
binding result [3]: no binding
binding result [4]: no binding
